The results in this text go back to the DeepSol protein solubility set.

The nature of this data set: soluble on expression in E. coli; label from the status in PepcDB or PDB records.
As for “MTVSNNGMAMPSVPPKIDCSEAIQDSPKFRATVAQHAMYFNRLENRLNEMLRHITAMIDFSKNYTNTFYKLTVSVNQLCDESFSGNPLASTTFQGLSEAYAHTVNLFRTYFDHSNVVTFTKLSNFIKIELTKVAESRAHFENMSQSMDDALVKNASISRQKPADATEGRNALTAVGTCFAHTTLDYVANINIAHAHKDHMILDALWTLVRESSAFFSKGHATFDEWTAADNGAIADTIQTFAAKSKLIERKMQDVHSLVPKEMFQHPSGMPIEPDVMMEGYLYKRSSNAFKTWNRRWFQIKDKQLLYSHRSTDLEPATIMEENLRICLVRPAPSNIDRIGCFELVTPTRIHLLQADSESLCQDWMRALQRTILALHEGDSVDVASTSPRNKTTSMSSGVTLTSANAISPLSNAMDVTKGRSVSDPASTYTSANTSSISTAAGFSSSTTAFEQVRRVPGNEVCADCGSPAPKWVSINLGVVLCIECSGAHRSLGVQTSKVRSLCMDSIDNELRDVLLALGNRQVNEIFLAHLPPADSIVPPQINEKSARPAREAWIKAKYVERRFAVAEDTRARSSATNRQEHLKHKTSIGGNSSSNGVNRSSSYADVQDAESGGLLDADPWSADLSVPVPTASKRLSACGSDTNLDAIGSSSIDTKTVEWDSVKEACECGDLLALMTAYAQGFDLNALHNGTTALHIATRNGQTAAVEFLLLNGAKINMLDEKLNTPLHLAAKEGHTLPVCQLLKRGADSNLANVDSKTPLDIAMECTHADIVTLFRVTIMRNDFNADFNNPMDETVEAVISDIARRAATEKEQKKTESLKSTSDI”, the “soluble on expression in E. coli” value is recorded as “not soluble”. “MGSDKIHHHHHHMVQAWYMDESTADPRKPHRAQPDRPVSLEQLRTLGVLYWKLDADKYENDPELEKIRKMRNYSWMDIITICKDTLPNYEEKIKMFFEEHLHLDEEIRYILEGSGYFDVRDKEDKWIRISMEKGDMITLPAGIYHRFTLDEKNYVKAMRLFVGEPVWTPYNRPADHFDARVQYMSFLEGTA”: the “soluble on expression in E. coli” value is “soluble”. On to “MTKRIEIKPATAADQAALAEIYLVDRQQDFPWVTDPQLQDFNEDSRGEFVLVAWIDGQRAGFCSLYRLANFIHLLFVAPDFRHLKVGERLLTEMRQYATEPLTLKCVMANENALRFYAQVGFRIVK”, for which the “soluble on expression in E. coli” value is on record as “not soluble”. The same measure for “MAGDPMRFQKIPMNIYEKFHRTFSGSNQDTFNVCSKCGGACEHNKIGTLLPGEKEYMAKKMGMSLSEFKLKYLDVLKMDDGTLIHVLKLGELCPFLNTETELCECRDFKPVICKIYPVVFTVESGKVKFSIDDWCQLSRKKVCRNYFESVIPLLYRLPVPVEWFRHVVSYDDLYFDYDQLRESRKGKSRYAVFTLKELLNFQKEELACHEIETYEPETGRMELYEIKVTSPNIDFCSEIEEPTFLEHHHHHH”: “soluble”; for “MSHFLVEKLTKTVGDKTVFQDISFIIHDFDRIGIIGVNGTGKTTLLDVLSGRLGFDGDHSPFSKANDYKIAYLTQDPEFNDAASVLDTVLSADVKAIQLIRQYELLMANYTEDKQESLESLMSEMDRLDAWSIESDVKTVLSKLGITDLEQKVGDLSGGMRRRVQLAQVLLGAADLLLLDEPTNHLDIDTIAWLTTYLKTAKKTVLFITHDRYFLDHVATRIFELDKAGLTEYQGNYQDYVRLKAEQDERDAANLHKKKQLYKQELAWMRTQPQARATKQQARINRFSDLKKEVHQDSSADKLEMTFETSRIGKKVIHFEDLSFAYGDRQLIKDFNLIIQNKDRIGIVGDNGVGKSTLLNIINGDLKPTSGKLDIGDTIRVGYFSQQLKDMDETKRVINYLQEVADEVKTSVGTTSISELLEQFLFPRSSHGTLIAKLSGGEKKRLYLLKLLIEKPNVLLLDEPTNDLDIATLKVLENFLANFAGPVITVSHDRYFLDKVATKILAFEEGDIRVFYGNYSDYLDEKVFEKETVEADLAKTTVTEEVPLPQKEERKRMSYLEKQEWAQIEDKIATIEANIEEIENQMLTVVSDYGQLAQLQKELDQRNNDLLLAYERFEYLSGLDI”: “not soluble”. Turning to “SLCHVTRPDAVVMEIEVDAKANGEDCLNKVCRKLGIIEVDYFGLQFSGSKGENLWLNLRNRISQQMDNLTPCRLRLRVKFFVEPHLILQEQTRHLFFMHVKEDLHRGHLRMCSEQAQELSALLAQAEFGDYNQNTAKYWYTELCGSEPNQTTINSIIAKHKALEGLSQASVEYQALQLVSSLEHYGVEWHWARDAEAQRLAIGVGPEGIAICRDDFSLVNRISYPIIQIATQSGKSVYLTVTKESSDSVVLLFKLISN”, the “soluble on expression in E. coli” value is reported as “soluble”. Regarding “MSEEDAEKLFLQEKPTRALLFIGSTGKTYASVISKEIDSTFAHTTRILSKMEQSGLIRFTFEGRIKFVELTKYGEEVEAALKDFRNIISEESPLRKEYLTAEEAGKVDKVRESEGKEYREHEEWEEENESEKDLDPLSAEILEKVRNLRNKIEGIYREAAETGQSKEMLSRKLGPNSRDIKKLYNQIENAETPVDETVVLALEETEGLLESYLKGSKPENV”, the “soluble on expression in E. coli” value was “not soluble”.

Take “MNVRITKKMVRELLEVLDEIVEEIRQEEKEKYPYAEWERKREIVKERLRKLPKYVREAVSAIRIEKRVGRPKKVDLEKRVMLFLFARLINKSNRDVEELLELFEPLFGIRVSYKTIERLYSDEEVRMALHNLFILLLKDEGVSGEFSGDGTGYSLAITKHYRSNPKKKGKDFRYVFRIIDLETGMYVGFGYSAKSEKDAFEKAMKMLKSMGVKVNSISLDKYYSTRKTLRMFDAETSVYVIPKRNLSRIGFDWLRVIERIVEMPYRFLKRYFKRNLSEAGFSADKRRFGWLIRQRREDRREMALFAVGLWHNIFAVRVMR”: the “soluble on expression in E. coli” value is “not soluble”. In the case of “SSAESASQIPKGQVDLLDFIDWSGVECLNQSSSHSLPNALKQGYREDEGLNLESDADEQLLIYIPFNQVIKLHSFAIKGPEEEGPKTVKFFSNKEHMCFSNVNDFPPSDTAELTEENLKGKPVVLKYVKFQNVRSLTIFIEANQSGSEVTKVQKIALYGST” it was “soluble”.

Take “MGSDKIHHHHHHMERCSVLRIKRLPESLVRKIAAGEVIHNPSFVLKELVENSLDAQADRIVVEIENGGKNMVRVSDNGIGMTREEALLAIEPYTTSKIESEEDLHRIRTYGFRGEALASIVQVSRAKIVTKTEKDALATQLMIAGGKVEEISETHRDTGTTVEVRDLFFNLPVRRKSLKSSAIELRMCREMFERFVLVRNDVDFVFTSDGKIVHSFPRTQNIFERALLILEDLRKGYITFEEELSGLRIKGIVSSREVTRSSRTGEYFYVNGRFVVSEELHEVLMKVYDLPKRSYPVAVLFIEVNPEELDVNIHPSKIVVKFLNEEKVKKSLEETLKRNLARKWYRSVAYEEISSRALSVAEAPSHRWFLVKGKYAVVEVEDGLLFVDLHALHERTIYEEILSKKSWGKRRVKRNITVVLSREEKQKLEEYGFSFQGEEGALKVIEIPEFLTEDVVEEFFRDFPVDEKLKERIALAACKLATKSGEFDEEIASKLLDVFFKKRFERCPHGRPISFKISYEDMDRFFER”: the “soluble on expression in E. coli” value was “not soluble”. Turning to “MHLTCKNGEIKTIMWSNISEQFPVTGYSYWAVGVDITHLKAIEEQLKQQTSELELIFKALPDLCFLTEDDGTIIDYKAGSPTKFYVPAEAFMGKKFYEVLPTSVAQQFQEAINQVKEKGTNVIVEYPLTLNGSIDFFEARCLPLLHDKIMIIVRDITERKKTEELLNKSDTLAAIGQLAAGVAHEVRNPLTVIKGFIQLFQINKEDQERYFDLMLSEIERIEAILQEFLSIAKTDEINTEKKNIYQIFKNVVSLMNTKAIMTNIQVELFTGDKDIIIECSENQLKQVFINILQNSIEAMPNGGGISIHIKEINDDGVIIHVIDEGIGIPEERIKRLGEPFYSTKEKGTGIGLMLSYKIIESHQGTISIRSEVGVGTTVTIYLPKVLNKQSLSNCDDKCIAIRTSSNS”, the “soluble on expression in E. coli” value is “not soluble”. The same measure for “MREWKIIDSTLREGEQFEKANFSTQDKVEIAKALDEFGIEYIEVTTPVASPQSRKDAEVLASLGLKAKVVTHIQCRLDAAKVAVETGVQGIDLLFGTSKYLRAPHGRDIPRIIEEAKEVIAYIREAAPHVEVRFSAEDTFRSEEQDLLAVYEAVAPYVDRVGLADTVGVATPRQVYALVREVRRVVGPRVDIEFHGHNDTGCAIANAYEAIEAGATHVDTTILGIGERNGITPLGGFLARMYTLQPEYVRRKYKLEMLPELDRMVARMVGVEIPFNNYITGETAFSHKAGMHLKAIYINPEAYEPYPPEVFGVKRKLIIASRLTGRHAIKARAEELGLHYGEEELHRVTQHIKALADRGQLTLEELDRILREWITAHHHHHH”: “soluble”; for “MGSDKIHHHHHHMCTRFVYNGKETIVGFNFDIDLSEWEHTVIAEKDRFFIGIKMSDNKYHSFHGINRNGNVGTLLYVHGNDNAQFCSNESCYTIADLTENFIKGNLSFDDSLEIVKKKKITYAPDTTMQAMFSDRNGRVLIIEPGIGYRLEKEKYSLITNYSILKPELTNPYVLSGDNRYEKAKDLLQGYGENFSISNAFDVLRSVRQEGLWATRVSFIYSVAKNKVYYVLNNDFKNIAEYQF”: “not soluble”.

Take “MGGFGVGKTTLVRSVSEIRPLNTEEVMTQAGVGVDETGGVTSKTTTTVAFDFGRISLNDRMVLYLFGAPGQERFWFLWDRLFSGTLGAVVLVDTRRMDDSWYAIDRLEHHRTPFVVAVNRFDDDTARHSLDEIRLALALPDHVPLIDCDARVRTSGKHVLVTLVDHLYQLALAQESASLEHHHHHH”: the “soluble on expression in E. coli” value is recorded as “not soluble”. In the case of “MKQSTIALALLPLLFTPVTKADIELTQSPSSLAVSAGEKVTMSCKSSQSLLNSGNQKNYLAWYQQKPGLPPKLLIYGASTRESGVPDRFTGSGSGTDFTLTISSVQAEDLAVYYCQNDHSYPLTFGAGTKLEIKRTVAAPSVFIFPPSDEQLKSGTASVVCLLNNFYPREAKVQWKVDNALQSGNSQESVTEQDSKDSTYSLSSTLTLSKADYEKHKVYACEVTHQGLSSPVTKSFNRGEC” it was “soluble”; in that of “MGSSHHHHHHSSGLVPRGSHMSQSTYSLEQLADFLKVEFQGNGATLLSGVEEIEEAKTAHITFLDNEKYAKHLKSSEAGAIIISRTQFQKYRDLNKNFLITSESPSLVFQKCLELFITPVDSGFPGIHPTAVIHPTAIIEDHVCIEPYAVVCQHAHVGSACHIGSGSVIGAYSTVGEHSYIHPRVVIRERVSIGKRVIIQPGAVIGSCGFGYVTSAFGQHKHLKHLGKVIIEDDVEIGANTTIDRGRFKHSVVREGSKIDNLVQIAHQVEVGQHSMIVAQAGIAGSTKIGNHVIIGGQAGITGHICIADHVIMMAQTGVTKSITSPGIYGGAPARPYQEIHRQVAKVRNLPRLEERIAALEKLVQKLEALSEQH”, “soluble”. In the case of “MILDKKSYDLLSYLLKLETPETVMAISHALNQSRRKVYYQLDKINQALPKGVDQIISYPRLGILLTADQKAACRLLLEEVTDYNYVMKSDERRRLSSIYIAVSTERVTIDKLMQINDVSRNTILNDLTELREELEDKQYKIQLHATKARGYYFGCHPMALIQYLYKLLVDVYQGGNTSFIDIFNRKLSEIQGLSVYFSKDILTYFHEYLFLSQASLGKTINTQDSQFMLQILPFMLLSYRNMRLDSETKSALKQEFHLIWKRKEYHIAQDLARELYHNFKLHLDDIEVSMVAMLMLSFRKDQDHHVESQDYDDMRATISHFIDQLESRYQLHFTHKQDLLKRLTTHCKALVYRKAYGIFLVNPLTDHVKEKYEELFAMTQSCATILEQDWTISLTDDDIAYLTIHLGGELRHNNTEQEKTKLVIVSDDGIGIQKLLFKQCQRYLANGQIEAVFTTEQYQSVYDLLAVDMIVATTDTLKTKIPMLIVNPILSDDDIIKLIRFSKQGRLSEHSRFSTELTKAIEAVVKDESDRYALVSKIEKLIHRELL” it was “not soluble”.
